Values quoted from earlier work in paper PMC8002558.

Target: Fibrinogen (Homo sapiens) (UniProt P02671)
Chain of UniProt P02671 (P02671 36-866, chain 1 of 3): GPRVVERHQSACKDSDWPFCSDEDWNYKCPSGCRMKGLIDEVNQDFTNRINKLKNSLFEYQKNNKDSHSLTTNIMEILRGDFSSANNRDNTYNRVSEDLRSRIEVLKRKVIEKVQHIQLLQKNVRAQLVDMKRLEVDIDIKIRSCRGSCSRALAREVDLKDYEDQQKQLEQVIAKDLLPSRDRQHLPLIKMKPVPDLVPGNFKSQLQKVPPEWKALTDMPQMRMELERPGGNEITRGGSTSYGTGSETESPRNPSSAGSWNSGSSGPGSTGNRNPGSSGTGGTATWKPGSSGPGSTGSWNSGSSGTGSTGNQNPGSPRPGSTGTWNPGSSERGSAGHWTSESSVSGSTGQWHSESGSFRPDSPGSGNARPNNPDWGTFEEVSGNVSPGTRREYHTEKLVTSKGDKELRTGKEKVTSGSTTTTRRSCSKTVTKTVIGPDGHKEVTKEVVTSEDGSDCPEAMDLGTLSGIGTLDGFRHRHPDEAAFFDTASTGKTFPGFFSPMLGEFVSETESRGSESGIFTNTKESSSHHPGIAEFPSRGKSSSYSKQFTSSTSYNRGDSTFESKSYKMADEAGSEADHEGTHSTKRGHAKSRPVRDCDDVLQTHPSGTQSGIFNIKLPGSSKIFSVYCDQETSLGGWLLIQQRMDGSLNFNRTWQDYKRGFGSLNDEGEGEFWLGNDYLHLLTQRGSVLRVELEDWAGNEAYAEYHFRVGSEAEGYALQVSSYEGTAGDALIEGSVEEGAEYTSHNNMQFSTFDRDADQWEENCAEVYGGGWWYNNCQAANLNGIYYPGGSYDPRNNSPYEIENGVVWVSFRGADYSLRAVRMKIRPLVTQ
Chain of UniProt P02671 (P02675 45-491, chain 2 of 3, further chain): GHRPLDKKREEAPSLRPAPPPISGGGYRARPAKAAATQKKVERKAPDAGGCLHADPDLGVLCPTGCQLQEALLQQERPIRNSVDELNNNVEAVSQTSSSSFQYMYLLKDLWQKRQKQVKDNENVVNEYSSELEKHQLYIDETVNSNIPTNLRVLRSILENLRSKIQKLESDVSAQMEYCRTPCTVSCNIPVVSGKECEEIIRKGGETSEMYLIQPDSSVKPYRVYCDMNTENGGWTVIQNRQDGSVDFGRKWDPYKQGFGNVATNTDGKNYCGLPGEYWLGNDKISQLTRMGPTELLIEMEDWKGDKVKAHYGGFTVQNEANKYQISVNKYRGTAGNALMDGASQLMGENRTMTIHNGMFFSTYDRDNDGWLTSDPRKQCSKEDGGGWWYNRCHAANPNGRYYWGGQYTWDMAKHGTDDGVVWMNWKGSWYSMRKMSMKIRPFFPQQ
Chain of UniProt P02671 (P02679 27-453, chain 3 of 3, further chain): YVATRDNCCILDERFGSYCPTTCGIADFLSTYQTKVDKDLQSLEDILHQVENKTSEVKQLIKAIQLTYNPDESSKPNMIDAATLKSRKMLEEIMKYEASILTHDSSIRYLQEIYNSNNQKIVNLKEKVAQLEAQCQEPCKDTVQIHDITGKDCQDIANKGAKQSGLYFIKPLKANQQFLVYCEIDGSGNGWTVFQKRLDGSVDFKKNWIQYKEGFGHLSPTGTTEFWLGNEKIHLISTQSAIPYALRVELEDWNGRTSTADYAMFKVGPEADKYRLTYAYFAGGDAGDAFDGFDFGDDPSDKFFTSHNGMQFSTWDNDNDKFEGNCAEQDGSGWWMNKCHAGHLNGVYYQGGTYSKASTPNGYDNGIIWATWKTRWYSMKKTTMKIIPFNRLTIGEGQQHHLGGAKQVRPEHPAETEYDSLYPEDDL

In the case of “Factor XIII (plasma) (from UniProt P00488)”, the Kd is listed as 10 nM.
